# Results from patent US20220195015A1 (published 2022).
# Positions count from the first letter of the chain named.
# B1: C063 (antibody, V domains shown)
# VH: EVQLVQSGAEVKKPGDSLKISCKASGYSFTRYWIGWVRQMPGKGLDWMGIIYPGDSDTRYSSSFQGQVTISADKSISTAYLQWSSLKASDTSLYYCVRRASSTNFEFWGQGTLVTVSS
# VL: SYELTQPPSVSVAPGQTATITCGGNNIGSKTVHWYQQKPGQAPVVVVYDDSDRPSGIPERFSGSKSGSTATLTITRVEAGDEADYYCQVWDSTSDHYVFGTGTKVAVI
# B2: C067 (antibody, V domains shown)
# VH: VQLVESGGGVVQPGRSLRLSCAASGFSFRIFGMNWVRQAPGKGLDWVAGISHDGSDKYFADSVKGRFTISRDNSKNTLYLQMNSLRADDTAVYYCARDMEVDYYDRSGHYHVFHAFDIWGQGTMVTVSS
# VL: DIVMTQSPDSLAVSLGARATINCKSSQSILYSSDNKSSLAWYQQKPGHPPKLLIYWASTRESGVPDRFSGSESGTDFTLTISNLQGEDVAVYYCQQYYSIPRSFGQGTKLEIK
# B3: C064 (antibody, V domains shown)
# VH: EVQLLESGGDLVQPGGSLRLSCAASGFTFSNYAMSWVRQAPGKGLEWVSAISGSGGNTYYADSVKGRFTISRDNSKNTLYLQMNSLRAEDTAVYYCAKAVHYGGNSDRRFSEPSAPFDYWGQGTLVTVSS
# VL: QSALTQPASVSGSPGQSITISCTGTSSDVGSYNLVSWYQQHPGKAPKLMIYEGSKRPSGVSNRFSGSKSGNTASLTISGLQAEDEADYYCCSYAGSSTPYVFGTGTKVTVL
# B4: C068 (antibody, V domains shown)
# VH: QVQLVESGGGVVQPGRSLRLSCVASGFSFSTYGMHWVRQAPGKGLEWVALIWSDGSNKYYGDAAEGRFTISRDNSNNTLYLQMNNLRAEDTALYYCARDHSSSSFVYYYYMDVWGKGTTVTVSS
# VL: QSALTQPRSVSGSPGQSVTISCTGTSSDIGGYNYVSWYQQHPDKAPKFIIFDVSKRPSGVPDRFSGSKSGNTASLTISGLQAEDEADYYCCSYAGPYPYVFGTGTKVTVL
# B5: C088 (antibody, V domains shown)
# VH: QVQLVQSGAEAKKPGASVKVSCKTSGYTFTNYFMHWVRQAPGQGPEWMGIIDSSDGGASYAQKFQGRVTMTRDTSTSTVYMELRSLKFEDTAVYYCARASTSTTSWSDALSLGSWGQGTLVTVSS
# VL: QSVLTQPPSVSGAPGQRVTISCTGSSSNIGGGSVVHWYQQLPGTAPKLLIYANSNRPSGVPDRFSGSKSGTSASLAIAGLQAEDEADYYCQSWDNGLSASGVVFGGGTKLTVL
# B6: C059 (antibody, V domains shown)
# VH: QVQLVQSGAEVKKPGASIKVSCKASGYTFTDYSMHWVRQAPGQGLEWMGWINPNSGGTKYAQKFQGWVTMTRDMSITTVYMELTRLRSDATAVFYCARGPLFHKLVYDSWTGYHDGFDIWGQGTMVTVSS
# VL: QSALTQPASVSGSPGQSITISCTGTSSDVGGYNYVSWYQHYPGKAPKLMIYEVTHRPSGVSNRFSGSKSGNTASLTISGLQAEDEADYYCSSSTNSSTWVFGGGTKMTVL
# B7: C083 (antibody, V domains shown)
# VH: EVQLVESGGGLVKPGGSLRLSCAASGFTFSSYSMNWVRQAPGKGLEWVSSISSSTSYIYYADSVKGRFTISRDNAKNSLYLQMNSLRAEDTAVYYCARERYGDNWGQGTLVTVSS
# VL: QLVLTQSPSASASLGASVKLTCTLSSGHSSYAIAWHQQQPEKGPRYLMSLNSDGSHSKGDGIPDRFSGSSSGAERYLTISSLQSEDEADYYCQTWGPWVFGGGTKLTVL
# B8: C518 (antibody, V domains shown)
# VH: EVQLVESGGGLIQPGGSLRLSCAASGITVSSNYMSWVRQAPGKGLEWVSVMYAGGSSFYADSVKGRFTISRDNSKNTLYLQMNSLRVEDTAVYYCARDLIALGVDVWGQGTTVTVSS
# VL: DIQLTQSPSFLSASVGDRVTITCRASQGISSYLAWYQQKPGKAPKLLIYAASTLQSGVPSRFSGSGSGTEFTLTISSLQPEDFATYYCQLLNSYPMCSFGQGTKLEIK
# B9: C066 (antibody, V domains shown)
# VH: EVQLVESGGGLIQPGGSLRLSCAASGLLVSRNYMTWVRQAPGKGLEWVSVIYSGGSTFYADSVRGRFTISRDNSKNTLYLQMDSLRAEDTAVYYCARDVGDYYGMDVWGQGTTVTVSS
# VL: B8 VL with S9A, I29M, S31N, K45N, A50T, M96Q, C97L, S98T, Q101G, L105V
# B10: C032 (antibody, V domains shown)
# VH: EVQLVQSGAEVKKPGESLKISCKGSGYSFTSYWIGWVRQMPGKGLEWMGIIYPGDSDTRYSPSFQGQVTISADKSISTAYLQWSSLKASDTAMYYCARGVAVDWYFDLWGRGTLVTVSS
# VL: QSVLTQPPSVSGAPGQRVTISCTGSSSNIGAGYDVHWYQQLPGTAPKLLIYGNSNRPSGVPDRFSGSKSGTSASLAITGLQAEDEADYYCQSYDSSLSALYVFGTGTKVTVL
# B11: C069 (antibody, V domains shown)
# VH: QVQLVQSGAEVKKPGSSVNVSCKASGGTFSTYAIHWVRQAPGQGLEWMGGIIPLFHTANYAQKFQGRVTITADESTSTAYMELSSLRSEDTAMYYCAINTQWDLVPRWGRGTLVTVSS
# VL: EIVLTQSPGTLSLAPGERATLSCRASQSVNSNYLAWYQQKPGQAPRLLIYGASSRATGIPDRFSGSGSGTDFTLTISRLEPEDFAVYYCQQYGFSLYSFGQGTKLEIK
# B12: C057 (antibody, V domains shown)
# VH: QVQLVQSGAEVKRPGASVKLSCKASGYIFTDYSIHWVRQAPGQGLEWMGWVNPNSGGGNSAQKFMDWVTMARDTSITTVYMELSRLRSDDTAVYYCARGPLFHKLVYDSWSGYHDGFDIWGQGTMVTVSS
# VL: QSALTQPASVSGSPGQSITISCTGTSSDVGAYKFVSWYQQHPGKAPQLIIYEVSNRPSGVSNRFSGSKSGNTASLTISGLQAEDEADYYCSSYTNASTWVFGGGTELTVL
# B13: C062 (antibody, V domains shown)
# VH: EVQLVESGGGLVKPGGSLRLTCAASGFTFSTYSMNWVRQAPGKGLEWVSSISSSSSYIYYADSVKGRFTISRDNAKNSLYLQMNSLRAEDTAVYYCARERGYYGGKTPPFLGGQGTLVTVSS
# VL: NFMLTQPHSVSESPGKTVTISCTGSSGSIASNYVQWYQQRPGSAPTTVIYEDNQRPSGVPDRFSGSIDSSSNSASLTISGLKTEDEADYYCQSYDSSNYWVFGGGTKLTVL
# B14: C065 (antibody, V domains shown)
# VH: QVQLQESGPGLVKPSQTLSLTCTVSGGSISSSNYYWSWIRQHPGKGLEWIGYIDYSGGTYYNPSLKSRVTISVDTSKNQFSLKLSSVTAADTAVYYCARVSTTVTTYLVGGFDIWGQGTMVTVSS
# VL: IRMTQSPSSLSASVGDRVTITCQASQDITNYLNWYQQKPGKAPKLLLYDASNLETGVPSRFSGSGSGTDFTFTISSLQPEDIATYYCQQYDNLPWTFGQGTKVEIK
# B15: C519 (antibody, V domains shown)
# VH: QVQLQESGPGLVKPSETLSLTCAVSGGSISSYYWSWIRQPPGKGLEWIGYIDTSGSTNYNPSLKSRVTMSVDTSKNQFSLNVNSVTAADTAVYFCGVCAGDCYAASVFDYRGQGTLVTVSS
# VL: DIQMTQSPSSLSASVGDRVTITCQASQDIIFYLNWYQQKPGKAPKLLIYDASNLKTGVPSRFSGSGSGTDFAFTISSLQPEDIATYYCQQYDNLPLTFGGGTKVEIK
# B16: C060 (antibody, V domains shown)
# VH: EVQLVESGGGLVQPGGSQRLSCAASGFTVSSNYMSWIRQAPGKGLEWVSVIYSGGSAYYVDSVKGRFTISRDNSKNTLYLQMNSLRPEDTAVYYCARIANYMDVWGKGTTVTVSS
# VL: EIVMTQSPATLSVSPGERATLSCRASQSVSSHLAWYQQKPGQAPRLLIYGASTRATGIPTRFSGSGSGTEFTLTISSLQSEDFAVYYCQQYNNWPPLTFGGGTKVEIK
# B17: C089 (antibody, V domains shown)
# VH: QVQLVESGGGVVQPGRSLRLSCAASGFTFRTYAMHWVRQAPGKGLEWVAVILSDGNNKYYADSVKGRFTISRDNSKNTLYLQMNSLRAEDTAIFYCAREQEANYYDISGYYHWGESLGYWGQGTLVTVSS
# VL: DIQLTQSPSFLSASVGDRVTITCRASQGISSYLAWYQQKPGKAPKLLIYGASTLQSGVPSRFSGSGSGTEFTLTISSLQPEDFASYYCQKVNSHPPGLTFGGGTKVEIK
# B18: C090 (antibody, V domains shown)
# VH: B17 VH
# VL: B17 VL with L46F, H94Y
# B19: C085 (antibody, V domains shown)
# VH: QVQLQESGPGLVKPSETLSLTCTVSGDSMSSYFWTWIRQPPGKGLECIGYFYPSGSTNYNPSLKSRVTISIDTSKNQFSLKLSSVTAADTAVYYCARLKQQLVGFGWFDPWGQGTLVTVSS
# VL: QSVLTQPPSVSGAPGQRVTISCTGSSSNIGADYDVHWYQQFPGTAPKVLIYANTNRPSGVPERFSGSKSGTSASLAITGLQAEDEADYYCQSYDHSLNWVFGGGTKLTVL
# B20: C086 (antibody, V domains shown)
# VH: B19 VH with M29I, S31T, T35A, K43R, Y50S, Y52F, N58Y, I71V, S83N, T115S
# VL: B19 VL with S26I, D34E, Q39V, G66A, S96R, N98H
# B21: C593 (antibody, V domains shown)
# VH: QVQLVQSGAEVKKPGASVKVSCKASGYTFTSYDINWVRQAPGQGLEWMGWMNPNSGNTDYAQKFQGRFTMTRNTSISTAYMELSSLRSEDTAVYYCASRRWDPLTFYYYMVVWGKGTTVTVSS
# VL: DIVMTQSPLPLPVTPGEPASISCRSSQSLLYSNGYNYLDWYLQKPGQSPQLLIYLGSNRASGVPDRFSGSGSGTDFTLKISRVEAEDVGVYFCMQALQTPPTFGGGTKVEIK
# B22: C570 (antibody, V domains shown)
# VH: QVQLQESGPGLVKPSETLSLTCTVSGASISSYYWSWIRQPPGKGLEWIGYIYYSGSTNYNPSLKSRVTISLDTSKNQFSLQLSSVTAADTAVYYCATYYFDNSGYSYGLDVWGQGTTVTVSS
# VL: DIQMTQSPSSLSASVGDRVTIACRASQSISSYLHWYQQQPGKAPKLLIYAVTNLQSGVPSRFSGSGSGTDFTLTISSLQPEDFATYYCQQSYSLPQTFGQGTKVEIK
# B23: C596 (antibody, V domains shown)
# VH: QVQLVESGGGVVQPGRSLRLSCAASGITFSHYGMHWVRQAPGKGLEWVALISSDGSKKYYADSVKGRFTISRDNSKSTLYLQMNSLRAEDTAIYYCAKDLGYYYGPPYGPDYWGQGTLVTVSS
# VL: DIQMTQSPSSLSASVGDRVTITCQASQDVSNSLNWYQQKPGKAPKLLIYDASNLETGVPSRFSGSGSGTDFSFTISSLQPEDIATYYCLQYDNFSMYTFGQGTKLEIK
# Biological target: SARS-CoV-2 receptor binding domain (RBD), wild type (SARS-CoV-2, UniProt P0DTC2 319-539)
# Assay: ELISA, RBD protein coated, mAb titrated
row,Binder,EC50
1,B1,414 ng/mL
2,B2,6.98 ng/mL
3,B3,363 ng/mL
4,B4,5.46 ng/mL
5,B5,2.44 ng/mL
6,B6,1.88 ng/mL
7,B7,25.1 ng/mL
8,B8,1.13 ng/mL
9,B9,4.2 ng/mL
10,B10,17.3 ng/mL
11,B11,381 ng/mL
12,B12,2.31 ng/mL
13,B13,4.69 ng/mL
14,B14,29.1 ng/mL
15,B15,1.06 ng/mL
16,B16,43.5 ng/mL
17,B17,4.69 ng/mL
18,B18,6.22 ng/mL
19,B19,2.38 ng/mL
20,B20,3.01 ng/mL

# Biological target: SARS-CoV-2 spike receptor binding domain (RBD), wild type (SARS-CoV-2, UniProt P0DTC2 319-539)
# Assay: ELISA, RBD protein coated, mAb titrated
row,Binder,EC50
1,B21,4.36 ng/mL
2,B22,0.74 ng/mL
3,B23,21 ng/mL
